# From PMC3254805
# Molecular target: endogenous GSK3β (UniProt P49841)
# Assay: anti-FoxO3a IP, GSK3β blot
# Details: reference: HA-FoxO3a-WT; sites T32,S253,S315
substance,measurement,value
"FoxO3a (RLuc- or HA-tagged constructs, WT and TM) (from UniProt O43524) HA-FoxO3a-TM (triple mutant)",binding against the reference,stronger
